The target of one data set is T1, ADAM10 (UniProt O14672 214-748, limits assumed).
T1 construct: Endogenous protein of ECFC endothelial cells
T1 sequence (looked up): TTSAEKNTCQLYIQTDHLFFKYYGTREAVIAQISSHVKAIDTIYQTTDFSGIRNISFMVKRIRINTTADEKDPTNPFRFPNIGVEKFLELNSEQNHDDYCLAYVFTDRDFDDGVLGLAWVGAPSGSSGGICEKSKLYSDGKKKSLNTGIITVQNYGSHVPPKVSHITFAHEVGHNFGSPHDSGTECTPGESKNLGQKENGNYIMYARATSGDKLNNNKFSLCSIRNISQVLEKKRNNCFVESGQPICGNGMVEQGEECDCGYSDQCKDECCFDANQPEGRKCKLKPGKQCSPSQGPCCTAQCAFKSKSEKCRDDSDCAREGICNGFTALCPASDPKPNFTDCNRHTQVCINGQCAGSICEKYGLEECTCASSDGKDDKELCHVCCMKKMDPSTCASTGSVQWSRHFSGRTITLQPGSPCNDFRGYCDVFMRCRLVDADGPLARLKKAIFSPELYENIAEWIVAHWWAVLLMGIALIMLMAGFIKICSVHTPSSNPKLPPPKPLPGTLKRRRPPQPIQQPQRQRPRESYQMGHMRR
Briefly: co-immunoprecipitation from ECFC in control condition (ADAM10 immunoprecipitated, CD146 isoforms detected by western blot). From the text:
C: ADAM10 was immunoprecipitated in ECFC cultured in basal condition (EBM2). The long (IgCD146) and short (shCD146) isoforms of CD146 were then detected by western blot using specific antibodies. Results are representative of 3 different experiments.

The target in the next data set is T2, Human long CD146 protein.
T2 chain: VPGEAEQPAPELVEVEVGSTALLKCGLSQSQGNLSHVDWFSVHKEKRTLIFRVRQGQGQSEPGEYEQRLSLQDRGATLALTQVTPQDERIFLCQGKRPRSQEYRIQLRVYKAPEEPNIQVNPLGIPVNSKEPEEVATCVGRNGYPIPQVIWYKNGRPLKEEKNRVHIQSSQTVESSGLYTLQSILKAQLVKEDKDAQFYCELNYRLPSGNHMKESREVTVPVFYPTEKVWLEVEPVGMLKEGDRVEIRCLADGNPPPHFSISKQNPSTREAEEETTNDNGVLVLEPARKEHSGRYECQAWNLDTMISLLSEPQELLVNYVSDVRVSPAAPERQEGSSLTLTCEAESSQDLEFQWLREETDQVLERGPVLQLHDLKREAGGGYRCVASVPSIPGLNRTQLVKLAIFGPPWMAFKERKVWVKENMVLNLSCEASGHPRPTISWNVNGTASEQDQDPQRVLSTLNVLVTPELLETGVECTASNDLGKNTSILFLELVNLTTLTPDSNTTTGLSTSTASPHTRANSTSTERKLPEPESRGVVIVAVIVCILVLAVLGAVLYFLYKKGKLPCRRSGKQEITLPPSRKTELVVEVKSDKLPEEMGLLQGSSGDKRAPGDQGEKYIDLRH

B1: Human short CD146 protein (other)
chain: VPGEAEQPAPELVEVEVGSTALLKCGLSQSQGNLSHVDWFSVHKEKRTLIFRVRQGQGQSEPGEYEQRLSLQDRGATLALTQVTPQDERIFLCQGKRPRSQEYRIQLRVYKAPEEPNIQVNPLGIPVNSKEPEEVATCVGRNGYPIPQVIWYKNGRPLKEEKNRVHIQSSQTVESSGLYTLQSILKAQLVKEDKDAQFYCELNYRLPSGNHMKESREVTVPVFYPTEKVWLEVEPVGMLKEGDRVEIRCLADGNPPPHFSISKQNPSTREAEEETTNDNGVLVLEPARKEHSGRYECQAWNLDTMISLLSEPQELLVNYVSDVRVSPAAPERQEGSSLTLTCEAESSQDLEFQWLREETDQVLERGPVLQLHDLKREAGGGYRCVASVPSIPGLNRTQLVKLAIFGPPWMAFKERKVWVKENMVLNLSCEASGHPRPTISWNVNGTASEQDQDPQRVLSTLNVLVTPELLETGVECTASNDLGKNTSILFLELVNLTTLTPDSNTTTGLSTSTASPHTRANSTSTERKLPEPESRGVVIVAVIVCILVLAVLGAVLYFLYKKGKLPCRRSGKQEMERNTSI
notes: Endogenous membrane isoform in ECFC, detected by western blot in immunoprecipitates from cell lysates; also expressed from a plasmid in CHO cells; also called shCD146; short isoform of CD146
For B1, the binding result with ADAM10 is reported as “no binding”.

B2: ADAM10 (protein)
chain: T1 sequence (looked up)
In the case of B2, in the data set with Human long CD146 protein, the “reduction of sCD146 secretion by ECFC under TNF after ADAM10 siRNA” value was “ADAM10 and Tace siRNA reduced sCD146 secretion by 60% and 25%, respectively”; the “sCD146 secretion by ECFC in control condition after siRNA” value was “only ADAM10 siRNA was able to inhibit sCD146 secretion and that the effect was similar to that of GM6001”; the “sCD146 secretion by a CHO clone stably expressing lgCD146 after transfection with an ADAM10 plasmid” value was “in the presence of ADAM10, sCD146 secretion was significantly increased”.
